Test results as given in patent US12637502B2, “Netrin G1 polypeptides” (Institute For Cancer Research, priority 2019, dated 2026).

B1: recombinant NGL1: recombinant Netrin G1 ligand (NGL1) protein added to EVs or cell cultures (protein)
chain: QTCPSVCSCSNQFSKVICVRKNLREVPDGISTNTRLLNLHENQIQIIKVNSFKHLRHLEILQLSRNHIRTIEIGAFNGLANLNTLELFDNRLTTIPNGAFVYLSKLKELWLRNNPIESIPSYAFNRIPSLRRLDLGELKRLSYISEGAFEGLSNLRYLNLAMCNLREIPNLTPLIKLDELDLSGNHLSAIRPGSFQGLMHLQKLWMIQSQIQVIERNAFDNLQSLVEINLAHNNLTLLPHDLFTPLHHLERIHLHHNPWNCNCDILWLSWWIKDMAPSNTACCARCNTPPNLKGRYIGELDQNYFTCYAPVIVEPPADLNVTEGMAAELKCRASTSLTSVSWITPNGTVMTHGAYKVRIAVLSDGTLNFTNVTVQDTGMYTCMVSNSVGNTTASATLNVTAATTTPFSYFSTVTVETMEPSQDEARTTDNNVGPTPVVDWETTNVTTSLTPQSTRSTEKTFTIPVTDINSGIPGIDEVMKTTKIIIGCFVAITLMAAVMLVIFYKMRKQHHRQNHHAPTRTVEIINVDDEITGDTPMESHLPMPAIEHEHLNHYNSYKSPFNHTTTVNTINSIHSSVHEPLLIRMNSKDNVQETQI
B2: recombinant NetG1: recombinant Netrin G1 protein added to EVs or cell cultures (protein)
chain: HYDLCKTQIYTEEGKVWDYMACQPESTDMTKYLKVKLDPPDITCGDPPETFCAMGNPYMCNNECDASTPELAHPPELMFDFEGRHPSTFWQSATWKEYPKPLQVNITLSWSKTIELTDNIVITFESGRPDQMILEKSLDYGRTWQPYQYYATDCLDAFHMDPKSVKDLSQHTVLEIICTEEYSTGYTTNSKIIHFEIKDRFAFFAGPRLRNMASLYGQLDTTKKLRDFFTVTDLRIRLLRPAVGEIFVDELHLARYFYAISDIKVRGRCKCNLHATVCVYDNSKLTCECEHNTTGPDCGKCKKNYQGRPWSPGSYLPIPKGTANTCIPSISSIGNCECFGHSNRCSYIDLLNTVICVSCKHNTRGQHCELCRLGYFRNASAQLDDENVCIECYCNPLGSIHDRCNGSGFCECKTGTTGPKCDECLPGNSWHYGCQPNVCDNELLHCQNGGTCHNNVRCLCPAAYTGILCEKLRCEEAGSCGS

Legend:
[1] = tested on: CAFs; assay: Cytokine secretion by CAFs treated with sNG1 or NetG1 peptides (ELISA); type: cell-based; details: CAFs treated 7 days, media conditioned 2 days, vs CON
Protocol: 1.6×10^5 Control (CON) or NetrinG1 Ligand knockdown (NGL1 KD) CAFs were plated into 24 well plates and allowed to produce matrices in the presence of 50 μg/mL of ascorbic acid and were either untreated or treated with either soluble NetrinG1 (sNG1), NetG1 peptide corresponding to a domain known to engage with NGL1 (NPYMSNNE; SEQ ID NO:26; (FITC)—Ba-Asn-Pro-Tyr-Met-Ser-Asn-Asn-Glu-(NH2)), hypothesized to modestly prevent NetG1/NGL1 interaction (peptide), or a modified NetG1 peptide (NPTMSNNE; SEQ ID NO:27; (FITC)—Ba-Asn-Pro-Thr-Met-Ser-Asn-Asn-Glu-(NH2)) suspected to strongly prevent NetG1/NGL1 engagement (mutant), for 7 days. […] The media was then replaced with serum- and glutamine-free media and CAFs were allowed to condition the media for 2 days. Conditioned media was collected from each well and subjected to ELISA for the measurement of cytokine (TGF-β, IL-6, and IL-8) secretion. […] 01, *** p<. 001, **** p<. 0001. N=3-6.

[2] = tested on: virus infected neurons; assay: Synapse-dependent viral transmission between neurons; type: cell-based; details: neurons only, FIG. 3A/3C
Protocol: (§1) Viral transmission was used as a test to investigate the formation of functional synapses. […] The same experiment, as in Panel A, was conducted, except that virus (red) infected neurons (green) were plated onto a CAF culture bed (evident in transmitted microscopy images shown in bottom panels) to assess heterotypic neuron-CAF functional synapse formation (evidence by red virus spread into CAFs) while untreated (left) or treated with recombinant NGL1 (middle) or NetG1 (right) (Panel B).

[3] = tested on: CAFs; assay: EV production by CAFs treated with recombinant NGL1; type: cell-based
[4] = tested on: PDAC cancer cells; assay: Rescue of starvation-induced death of PDAC cancer cells by CAF-produced EVs; type: cell-based
Source text: PDAC cells die in the absence of nutrition but can be rescued using EVs secreted by intact CAFs. If CAFs are deficient in NetG1 expression, the resultant EVs fail to rescue PDAC cells from starvation. […] The pharmaceutical agents set forth herein will prevent the NetG1/NGL1 engagement and, thus, serve as therapeutics that will assure PDAC cells will not survive under nutritional stress as in vivo.

[5] = tested on: virus infected neurons plated onto a CAF culture bed; assay: Heterotypic neuron-CAF functional synapse formation (virus spread into CAFs); type: cell-based; details: FIG. 3B/3D
Protocol: as §1

[6] = tested on: CAFs; assay: CAF blebbing under 3D conditions; type: cell-based, human
Source text: The phenotype is believed to indicate fibroblastic function after NGL1 engagement from other cells (like tumor cells). Similar effects were observed when cancer cells were co-cultured with CAFs using CAF-derived matrices as culturing scaffolds.

[7] = tested on: CAF EVs; assay: Clustering of CAF-secreted EVs treated after collection; details: CAF EVs incubated with the agent following their collection
[8] = tested on: T cells from murine spleens; assay: T cell activation with CD3/CD28; type: cell-based; details: recombinant NetG1 present during activation

Molecule	secreted IL-6 [1]	secreted IL-8 [1]	secreted TGF-β [1]	virus transmission via functional synapses between neurons [2]	clustering of EVs produced by treated CAFs [3]	number of EVs produced [3]	effectiveness of CAF-produced EVs in rescuing starvation-induced death of PDAC cancer cells ([4]; EVs pre-incubated with recombinant NGL1)	functional synapses between neurons and fibroblasts (virus spread into CAFs) [5]	CAF blebbing (membrane ruffling or protruding) ([6]; 3D conditions that enable NetrinG1 expression in CAFs)	CAF blebbing in NetG1 KO CAFs ([6]; same treatment, NetG1 KO CAFs)	EV clustering [7]	T cell activation (proliferation) by CD3/CD28 [8]	effectiveness of EVs from NetG1 deficient CAFs (NG1KO) in rescuing starvation-induced death of PDAC cancer cells ([4]; recombinant NetG1 treatment of KRAS-transformed pancreatic cells)
NPTMSNNE (NetG1 polypeptide) [SEQ ID NO:27]	significant decreases	significant decreases	significant decreases	–	–	–	–	–	–	–	–	–	–
NPYMSNNE (NetG1 polypeptide) [SEQ ID NO:26, NetG1 peptide corresponding to a domain known to engage with NGL1]	significant decreases	significant decreases	significant decreases	–	–	–	–	–	–	–	–	–	–
B1	–	–	–	limited virus transmission	induced some clustering	production of increased numbers of EVs	tends to decrease	prevented	induced CAF blebbing	blebbing was not observed	enables small NetG1 positive (i.e., exomeres)	–	–
B2	–	–	–	limited virus transmission	–	–	–	prevented	–	–	only clusters exosomes	activation is prevented	improves the effectiveness of EVs
